Reference: publication PMC13529201

Target: His-tagged Pasteurella lipoprotein E (PlpE) of P. multocida (Pasteurella multocida)
Test: BLI

B1: ABCF2 used as analyte in bio-layer interferometry (natural protein)
chain: MPSDLAKKKAAKKKEAAKARQRPRKGHEENGDVVTEPQVAEKNEANGRETTEVDLLTKELEDFEMKKAAARAVTGVLASHPNSTDVHIINLSLTFHGQELLSDTKLELNSGRRYGLIGLNGIGKSMLLSAIGKREVPIPEHIDIYHLTREMPPSDKTPLHCVMEVDTERAMLEKEAERLAHEDAECEKLMELYERLEELDADKAEMRASRILHGLGFTPAMQRKKLKDFSGGWRMRVALARALFIRPFMLLLDEPTNHLDLDACVWLEEELKTFKRILVLVSHSQDFLNGVCTNIIHMHNKKLKYYTGNYDQYVKTRLELEENQMKRFHWEQDQIAHMKNYIARFGHGSAKLARQAQSKEKTLQKMMASGLTERVVSDKTLSFYFPPCGKIPPPVIMVQNVSFKYTKDGPCIYNNLEFGIDLDTRVALVGPNGAGKSTLLKLLTGELLPTDGMIRKHSHVKIGRYHQHLQEQLDLDLSPLEYMMKCYPEIKEKEEMRKIIGRYGLTGKQQVSPIRNLSDGQKCRVCLAWLAWQNPHMLFLDEPTNHLDIETIDALADAINEFEGGMMLVSHDFRLIQQVAQEIWVCEKQTITKWPGDILAYKEHLKSKLVDEEPQLTKRTHNV
- Kd: 970 nM
